To fix the notation:
B1: NF2 (merlin) isoform 7, human, full length (507 aa, lacks exons 2-3 = isoform-1 residues 39-121; exon-16 C-terminus), P35240-4 (parent)
chain: MAGAIASRMSFSSLKRKQPKTFTVRIVTMDAEMEFNCEVKKQILDEKIYCPPEASVLLASYAVQAKYGDYDPSVHKRGFLAQEELLPKRVINLYQMTPEMWEERITAWYAEHRGRARDEAEMEYLKIAQDLEMYGVNYFAIRNKKGTELLLGVDALGLHIYDPENRLTPKISFPWNEIRNISYSDKEFTIKPLDKKIDVFKFNSSKLRVNKLILQLCIGNHDLFMRRRKADSLEVQQMKAQAREEKARKQMERQRLAREKQMREEAERTRDELERRLLQMKEEATMANEALMRSEETADLLAEKAQITEEEAKLLAQKAAEAEQEMQRIKATAIRTEEEKRLMEQKVLEAEVLALKMAEESERRAKEADQLKQDLQEAREAERRAKQKLLEIATKPTYPPMNPIPAPLPPDIPSFNLIGDSLSFDFKDTDMKRLSMEIEKEKVEYMEKSKHLQEQLNELKTEIEALKLKERETALDILHNENSDRGGSSKHNTIKKPQAQGRRPICI

Several values for one entry are separate records, joined by “and”; a condition that tells them apart may be missing. Equal values may be shown once.

In the first experiment the parent is B1. Nature of the experiment: reverse yeast two-hybrid deep mutational scan (rY2H-seq): NF2 isoform 7 mutant library as bait mated with wild-type prey strains; selection on medium lacking adenine for non-interacting pairs; NextSeq paired-end sequencing; enrichment vs …. The note with it: with PIK3R3 (phosphatidylinositol 3-kinase regulatory subunit gamma), Q92569; yeast diploids after mating (RBait_S3 x RPrey_S3), 30 °C, selection for reporter genes on NB agar; human tyrosine kinase ABL2 co-expressed as the active kinase …; HIGHER = WEAKER BINDING (the opposite of display enrichments): higher = stronger loss of interaction: reverse Y2H selects yeast in which bait and prey do NOT interact (growth without adenine), so a …; hits-only table; scale: rY2H score; numbering: uniprot, sequence starts at 1.
For the variant L57F, the enrichment worked out at 1.98. Still for that read-out and setting: next, S204F: 3.76 and 3.21; I213F: 15.3.

Staying with this experiment, now noted: with KDM1A (lysine-specific histone demethylase 1A; the table's label AOF2 is a gene synonym of KDM1A), O60341; yeast diploids after mating (RBait_S3 x RPrey_S3), 30 °C, selection for reporter genes on NB agar; human tyrosine kinase ABL2 co-expressed as the active kinase …; HIGHER = WEAKER BINDING (the opposite of display enrichments): higher = stronger loss of interaction: reverse Y2H selects yeast in which bait and prey do NOT interact (growth without adenine), so a …; hits-only table; scale: rY2H score; numbering: uniprot, sequence starts at 1.
Take S60F: the enrichment stood at 3.51.

For the variant I505F, the enrichment turned out to be 2.14. As for I213F, the enrichment was 6.76.

Still in this experiment, the particulars now being: with EMILIN1 (elastin microfibril interfacer 1), Q9Y6C2; yeast diploids after mating (RBait_S3 x RPrey_S3), 30 °C, selection for reporter genes on NB agar; human ABL2 co-expressed as the kinase-dead K35M mutant …; HIGHER = WEAKER BINDING (the opposite of display enrichments): higher = stronger loss of interaction: reverse Y2H selects yeast in which bait and prey do NOT interact (growth without adenine), so a …; hits-only table; scale: rY2H score; numbering: uniprot, sequence starts at 1.
Consider S172F, for which the enrichment came to 1.58. Turning to A406F, the enrichment stood at 10.8. On the same count and under the same terms, to I213F belongs 7.19 and 3.36.

Staying with this experiment, now noted: with EMILIN1 (elastin microfibril interfacer 1), Q9Y6C2; yeast diploids after mating (RBait_S3 x RPrey_S3), 30 °C, selection for reporter genes on NB agar; human tyrosine kinase ABL2 co-expressed as the active kinase …; HIGHER = WEAKER BINDING (the opposite of display enrichments): higher = stronger loss of interaction: reverse Y2H selects yeast in which bait and prey do NOT interact (growth without adenine), so a …; hits-only table; scale: rY2H score; numbering: uniprot, sequence starts at 1.
As to I505F, the enrichment amounted to 1.61. I213F: the enrichment was found to be 3.35. The same measure, in the same setting: to N402F belongs 4.91.

The experiment is the same for the next values; noted with them: with NF2 C-terminal domain (wild type; homomeric NF2-NF2 interaction), P35240; yeast diploids after mating (RBait_S3 x RPrey_S3), 30 °C, selection for reporter genes on NB agar; human ABL2 co-expressed as the kinase-dead K35M mutant …; HIGHER = WEAKER BINDING (the opposite of display enrichments): higher = stronger loss of interaction: reverse Y2H selects yeast in which bait and prey do NOT interact (growth without adenine), so a …; hits-only table; partner unresolved; scale: rY2H score; numbering: uniprot, sequence starts at 1.
Consider I505F, for which the enrichment is 2.29. Still for that read-out and setting: to I213F belongs 4.21.

Still in this experiment, the particulars now being: with KDM1A (lysine-specific histone demethylase 1A; the table's label AOF2 is a gene synonym of KDM1A), O60341; yeast diploids after mating (RBait_S3 x RPrey_S3), 30 °C, selection for reporter genes on NB agar; human ABL2 co-expressed as the kinase-dead K35M mutant …; HIGHER = WEAKER BINDING (the opposite of display enrichments): higher = stronger loss of interaction: reverse Y2H selects yeast in which bait and prey do NOT interact (growth without adenine), so a …; hits-only table; scale: rY2H score; numbering: uniprot, sequence starts at 1.
For N402F, the enrichment is 24.7.

(Values after article PMC10244618.)
